Experiment [1] concerns the target pIgR expressed on transfected MDCK cells. Kind of experiment: cell-based or functional assay.
The target in experiment [2] is pIgR Domain 6 GST (D6-GST) fusion protein, species not stated (Schistosoma japonica) [GST: P08515]. The experiment in a line: SPR BIAcore, 1:1 Langmuir global fit 62.5-1000 nM; ligand not named. (In general: Surface plasmon resonance follows binding to a sensor surface in real time, without labels.)

The values that follow come from patent publication US20060099150A1.

The term Kd denotes the concentration at which binding is half-saturated. High values mean weaker binding, low ones tighter binding. The term koff denotes a measure of how fast the partners let go of each other. By kon is commonly meant the rate constant with which the complex forms. The low end stands for slower complex formation, the high end for faster complex formation.

Chain of pIgR Domain 6 GST (D6-GST) fusion protein, species not stated (Schistosoma japonica) [GST: P08515] (P08515 whole entry, the tested form may be a part): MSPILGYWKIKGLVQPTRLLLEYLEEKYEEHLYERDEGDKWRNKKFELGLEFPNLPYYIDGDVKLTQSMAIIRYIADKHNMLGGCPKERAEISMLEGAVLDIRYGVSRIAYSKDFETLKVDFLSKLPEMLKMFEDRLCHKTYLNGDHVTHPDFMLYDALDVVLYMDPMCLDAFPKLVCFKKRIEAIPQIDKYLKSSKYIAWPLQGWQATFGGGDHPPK

B1: sFv5AF (scFv)
scFv: DYKAKQVQLVQSGGGVVQPGRSLRLSCAASGFTFSSYAMHWVRQAPGKGLEWVSAISGSGGSTYYADSVKGRFTISRDNAKNSLYLQMNSLRAEDTAVYYCARDTRGYFDLWGRGTLVTVSSGGGGSGGGGSGGGGSSELTQDPAMSVALGQTVRITCQGDSLRKYHASWYQQRPRQAPRLVVYGKNERPSGIPERFSGSTSGDTASLTISGLQAEDEADYYCHSRDSNADLVVFGGGTKVTVLGAAAEQKLISEEDLNGAAHHHHHH
In experiment [1], B1 yielded a transcytosis on pIgR expressing MDCK cells overnight of 2%. For the same molecule, in experiment [2], the Ka was determined as 4.47e+06 M⁻¹, the dissociation constant Kd was determined as 224 nM, the koff worked out at 0.00464 s⁻¹ and the kon came out at 27100 M⁻¹ s⁻¹.
